According to US20200247849A1, “PEPTIDE AGONISTS AND ANTAGONISTS OF TLR4 ACTIVATION” (PEPTICOM LTD, priority 2016, published 2020):

Legend:
TLR1/2 = target: T1, TLR1/2 (Mus musculus, UniProt Q9EPQ1+Q9QUN7); experiment: TNF-a release from primary mouse macrophages exposed to PAM3; type: cell-based; details: primary mouse macrophages exposed to PAM3, FIG. 7
T1 construct: endogenous in cells; host or cells: primary mouse macrophages
From the text: The top graph presents TNF-a release from primary mouse macrophages exposed to LPS treated with either peptide SEQ ID No. 9 or a control peptide while the bottom graph presents TNF-a release from primary mouse macrophages exposed to PAM3 treated with either peptide SEQ ID No. 9 or a control peptide. […] This method had been previously described (Lerner et al. 2011, Heparanase powers a chronic inflammatory circuit that promotes colitis-associated tumorigenesis in mice. J Clin Invest. 121(5): 1709-1721).

CD14-TLR4 = target: T2, CD14-TLR4 (Homo sapiens, UniProt P08571); experiment: Reporter gene assay, NIH3T3 cells transfected with CD14 and TLR4, LPS-mediated activation; type: cell-based; details: FIG. 6I
T2 construct: expressed in transfected cells; host or cells: NIH3T3
T2 sequence (P08571 20-345 limits assumed): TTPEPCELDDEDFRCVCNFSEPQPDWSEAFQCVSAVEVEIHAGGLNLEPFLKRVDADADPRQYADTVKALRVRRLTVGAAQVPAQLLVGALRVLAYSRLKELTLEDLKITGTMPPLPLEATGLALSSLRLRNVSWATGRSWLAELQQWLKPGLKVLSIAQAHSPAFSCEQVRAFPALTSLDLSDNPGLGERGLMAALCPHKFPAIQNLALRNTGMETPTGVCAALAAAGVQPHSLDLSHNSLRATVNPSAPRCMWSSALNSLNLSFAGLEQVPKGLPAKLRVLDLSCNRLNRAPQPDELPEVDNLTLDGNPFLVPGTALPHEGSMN
From the text: FIGS. 6A-6V present peptide activity using NIH3T3 cells that express TLR4, with either the MD2 co-receptor (top) or CD14 co-receptor (bottom), for peptides of SEQ ID Nos. 1-22, respectively, according to some embodiments of the invention. FIGS. 6A-6V show the dose response inhibitor/activator effects of the designed peptides using a reporter gene assay. The reporter gene assay is composed of NIH3T3 cells transfected with either MD2 or CD14 along with TLR4 and the NF-κB-inducible reporter gene Secreted Alkaline Phosphatase (SEAP) to monitor TLR4 activation (Burger-Kentischer et al. 2010, A new cell-based innate immune receptor assay for the examination of receptor activity, ligand specificity, signaling pathways and the detection of pyrogens. J Immunol Methods. 358(1-2): 93-103). […] The receptors are coupled to for the detection of inhibitory activity, cells were treated with the peptide prior to exposure to LPS and the response to LPS is measured at variable peptide doses (as labeled). […]
At Day 3: To determine the final SEAP value, 50 μl of the supernatant is carefully transferred in a new 96-well plate (Greiner-F-plate) and 50 μl of the substrate (pNPP; p-nitrophenyl phosphate) is added. SEAP catalyzes the hydrolysis of pNPP to the final product para-nitrophenol (yellow) which can be detected by a photometric analysis using an UV-VIS reader at 405 nm. […]

T1 sequence (Q9EPQ1 26-795): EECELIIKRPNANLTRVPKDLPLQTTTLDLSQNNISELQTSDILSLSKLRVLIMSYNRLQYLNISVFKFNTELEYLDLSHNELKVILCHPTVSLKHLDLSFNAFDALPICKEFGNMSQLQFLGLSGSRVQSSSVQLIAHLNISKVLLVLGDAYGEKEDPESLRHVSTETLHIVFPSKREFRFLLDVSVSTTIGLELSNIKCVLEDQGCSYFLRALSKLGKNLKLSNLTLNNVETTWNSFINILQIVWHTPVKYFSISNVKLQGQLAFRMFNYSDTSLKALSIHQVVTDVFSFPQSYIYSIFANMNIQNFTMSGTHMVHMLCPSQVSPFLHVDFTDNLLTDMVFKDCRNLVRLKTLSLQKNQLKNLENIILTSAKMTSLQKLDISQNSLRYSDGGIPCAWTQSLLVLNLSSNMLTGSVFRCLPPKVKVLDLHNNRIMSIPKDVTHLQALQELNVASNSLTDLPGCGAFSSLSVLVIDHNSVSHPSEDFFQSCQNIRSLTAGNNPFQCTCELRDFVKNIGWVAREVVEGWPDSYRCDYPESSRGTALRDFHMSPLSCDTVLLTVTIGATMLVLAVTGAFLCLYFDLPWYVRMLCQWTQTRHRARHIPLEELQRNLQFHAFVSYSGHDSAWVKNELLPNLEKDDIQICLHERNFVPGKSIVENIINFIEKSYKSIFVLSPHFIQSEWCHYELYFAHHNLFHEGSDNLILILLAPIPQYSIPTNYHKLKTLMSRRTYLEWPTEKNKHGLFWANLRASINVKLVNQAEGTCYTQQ
T1 sequence (Q9QUN7 25-784): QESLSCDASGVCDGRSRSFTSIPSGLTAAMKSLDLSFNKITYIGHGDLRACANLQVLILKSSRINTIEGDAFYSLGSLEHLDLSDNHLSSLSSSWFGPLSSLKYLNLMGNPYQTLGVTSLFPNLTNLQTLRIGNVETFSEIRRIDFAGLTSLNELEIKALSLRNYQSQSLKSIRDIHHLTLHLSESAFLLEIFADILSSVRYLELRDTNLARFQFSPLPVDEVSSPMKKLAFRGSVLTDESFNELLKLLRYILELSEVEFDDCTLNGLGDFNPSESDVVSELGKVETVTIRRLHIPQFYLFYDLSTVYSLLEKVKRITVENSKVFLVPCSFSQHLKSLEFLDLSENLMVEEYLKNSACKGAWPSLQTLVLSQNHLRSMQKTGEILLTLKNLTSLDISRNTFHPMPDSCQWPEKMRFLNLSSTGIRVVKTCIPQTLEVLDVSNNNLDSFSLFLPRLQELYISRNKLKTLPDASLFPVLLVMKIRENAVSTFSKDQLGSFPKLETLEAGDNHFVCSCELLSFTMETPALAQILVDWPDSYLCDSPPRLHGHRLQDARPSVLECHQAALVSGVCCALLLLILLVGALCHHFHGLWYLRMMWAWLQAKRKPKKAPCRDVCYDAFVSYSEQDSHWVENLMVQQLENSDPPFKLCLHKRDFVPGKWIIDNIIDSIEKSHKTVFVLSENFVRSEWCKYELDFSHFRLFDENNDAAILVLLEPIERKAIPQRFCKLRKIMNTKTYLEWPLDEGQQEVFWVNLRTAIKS

effect on PAM3 induced TNF-a release (TLR1/2): no significant effect
inhibition of LPS mediated CD14-TLR4 activation (CD14-TLR4): inability of to inhibit
Sequence: ILFMGMKWL (Inhibitor) [SEQ ID No. 9]
